Results reported in patent US7176283B1, “Protease-activated receptor 3 and uses thereof” (The Regents of the University of California, priority 1996, dated 2007).

Assays:
[1] = molecular target: α-thrombin (Homo sapiens (Human)) (UniProt P00734); test: cell-based or functional assay
[2] = molecular target: epitope-tagged human PAR3 (FLAG epitope fused to amino acid 17 of PAR3) (human) (UniProt O00254); test: antibody binding to the FLAG epitope on the surface of transfected Cos 7 cells
[3] = test system: epitope-tagged human PAR3 bearing the F40A tethered ligand domain mutation
human PAR3 = molecular target: T1, human PAR3 (Homo sapiens, UniProt O00254); test: Phosphoinositide hydrolysis in Cos 7 cells transfected with human PAR3; assay type: cell-based; settings: Cos 7 cells expressing human PAR3; peptide concentrations up to 100 μM
T1 construct: The human PAR3 cDNA used for the functional studies presented below was cloned from a Lamda gt 10 intestinal cDNA library; expressed in transfected cells; host or cells: Cos 7 cells
T1 sequence (O00254 22-374): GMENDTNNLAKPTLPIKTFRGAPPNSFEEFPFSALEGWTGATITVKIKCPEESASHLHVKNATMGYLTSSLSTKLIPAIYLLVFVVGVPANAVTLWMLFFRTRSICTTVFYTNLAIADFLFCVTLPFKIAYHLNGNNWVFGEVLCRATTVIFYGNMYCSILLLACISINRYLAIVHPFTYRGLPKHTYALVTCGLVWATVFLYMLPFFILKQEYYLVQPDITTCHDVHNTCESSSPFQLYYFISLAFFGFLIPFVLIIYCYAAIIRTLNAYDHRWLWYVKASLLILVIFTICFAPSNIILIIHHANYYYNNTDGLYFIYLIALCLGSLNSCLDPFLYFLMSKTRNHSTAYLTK
Method: PAR3 signaling in Cos 7 cells was also examined. Cos 7 cells were transfected with human PAR1 or PAR3. Cells were then metabolically labelled with ^3H-inositol and phosphoinositide hydrolysis was measured in response to the indicated concentrations of a-thrombin (FIG. 8) or γ-thrombin (FIG. 9) as described by Ishii, et al. and Nanevicz et al. (Ishii, K. et al. (1993) supra; and Nanevicz, T. et al. (1996) J. Biol. Chem. 271:702–706).
Peptides homologous to the tethered domain of PAR3 may be tested as potential agonists of PAR3 activity. Two peptides TFRGAP (SEQ NO:27) and […] (SEQ ID NO:17) were synthesized and tested for their ability to mimic the action of thrombin by causing PAR3 signaling as measured by phosphoinositide hydrolysis. Cos 7 cells expressing human PAR3 were incubated with the peptides at concentrations up to 100 μM.

[4] = molecular target: epitope-tagged human PAR3 (FLAG epitope fused to amino acid 17 of PAR3) (human) (UniProt O00254); test: cell-based or functional assay
[5] = molecular target: human protease-activated receptor 3 (human) (UniProt O00254); test: cell-based or functional assay

hirugen (peptide)
shift of the α-thrombin dose response curve for PAR3 signaling (data not shown) [1]: 2 logs

M1 monoclonal antibody (Kodak)
share of M1 antibody binding that was transfection-dependent [2]: > 95%

α-thrombin
PAR3 signaling and PAR3 cleavage by thrombin [3]: ablated PAR3 signaling but not PAR3 cleavage by thrombin

TFRGAPPNS [synthetic peptide homologous to the tethered ligand domain of PAR3]
PAR3 signaling as measured by phosphoinositide hydrolysis (agonist activity) (human PAR3): no detectable signaling

TFRGAP [synthetic peptide homologous to the tethered ligand domain of PAR3]
PAR3 signaling as measured by phosphoinositide hydrolysis (agonist activity) (human PAR3): no detectable signaling

thrombin rendered proteolytically inactive by the active site inhibitor PPACK (enzyme)
45Ca release in Xenopus oocytes [4]: 1 µM

γ-thrombin (enzyme)
EC50, phosphoinositide hydrolysis in Cos 7 cells [5]: 20 nM
